Biological target: the molecule itself
Experiment: cryo-EM structure; single-particle cryo-EM of purified YnaI in amphipols; 20 mmol/L Mes pH 6.5, 200 mmol/L NaCl, 5 mmol/L DTT; 0.1 mg/mL on grids; homoheptamer

B1: YnaI channel (MscS-like mechanosensitive channel of E. coli) (natural protein, UniProt P0AEB5 1-343, looked up)
chain: MIAELFTNNALNLVIIFGSCAALILMSFWFRRGNRKRKGFLFHAVQFLIYTIIISAVGSIINYVIENYKLKFITPGVIDFICTSLIAVILTIKLFLLINQFEKQQIKKGRDITSARIMSRIIKITIIVVLVLLYGEHFGMSLSGLLTFGGIGGLAVGMAGKDILSNFFSGIMLYFDRPFSIGDWIRSPDRNIEGTVAEIGWRITKITTFDNRPLYVPNSLFSSISVENPGRMTNRRITTTIGLRYEDAAKVGVIVEAVREMLKNHPAIDQRQTLLVYFNQFADSSLNIMVYCFTKTTVWAEWLAAQQDVYLKIIDIVQSHGADFAFPSQTLYMDNITPPEQGR
Q: With B1 as the protein, how does the “stoichiometry N” value read?
A: The value was 7.
